Data on one molecule can be found in patent US20170368150A1, “METHODS OF TREATING PULMONARY SARCOIDOSIS” (GOTHAM BIOPHARMACEUTICALS, INC., priority 2014, published 2017).

Data set [1] concerns patient with chronic pulmonary sarcoidosis. Nature of the data set: n=1 long-term clinical treatment of a chronic pulmonary sarcoidosis patient with PULMOZYME
Type of data set: in vivo. The text has this:
At times, the patient was bedridden, dyspneic, and could not climb stairs or walk more than 10 feet. Steroids had been prescribed by pulmonary specialists; however the side effects of steroid therapy (diabetes, weight gain, memory loss, mental confusion, crippling joint pain) were intolerable. The patient's pulmonary sarcoidosis was deemed ultimately refractory to steroid therapy, which was discontinued, leaving essentially no therapeutic options for this patient.
PULMOZYME® was prescribed to the patient by a licensed medical practitioner to initiate treatment.
The extended clinical timeline described above allowed for a distinction between remission and stabilization of the disease to be made. […] This was done on an annual basis for the patient described above for the typical “survival window” (8-14 years for patients with progressive, chronic disease).
The clinical timeline for treatment of the patient described above with PULMOZYME® is represented diagrammatically in FIG. 3 during pretreatment and for the entire treatment interval.

For a further data set, the system named is bronchiectasis patients. The note with it: large clinical trial; cited from earlier work.
Setting [2] is: more than 10 years of treatment.

B1: dornase alfa (protein, listed as Homo sapiens)
chain: LKIAAFNIQTFGETKMSNATLVSYIVQILSRYDIALVQEVRDSHLTAVGKLLDNLNQDAPDTYHYVVSEPLGRNSYKERYLFVYRPDQVSAVDSYYYDDGCEPCGNDTFNREPAIVRFFSRFTEVREFAIVPLHAAPGDAVAEIDALYDVYLDVQEKWGLEDVMLMGDFNAGCSYVRPSQWSSIRLWTSPTFQWLIPDSADTTATPTHCAYDRIVVAGMLLRGAVVPDSALPFNFQAAYGLSDQLAQAISDHYPVEVMLK
For the molecule B1, the “pulmonary disease symptoms (dyspnea, inspissated secretions) on discontinuation of therapy” value in data set [1] (annual 2-week discontinuation, resolved upon resumption (2.5 mg qd 4x weekly)) is listed as “worsened”. For the same molecule, the “arterial O2 saturation (finger pulse oximetry)” value in data set [1] (at present, on room air) is on record as 98%. Moreover, in data set [1] (currently measured on room air, low of 70% in pre-treatment interval), the “Arterial oxygenation via pulse oximetry, SaO2” value is given as 99%. In data set [1] (during PULMOZYME therapy), the “Chest physical therapy with postural drainage” value is listed as “none required”; the “General quality of life” value is recorded as “vastly improved”; the “Rib fractures and abdominal hernias” value is recorded as “none”. Further, in data set [1] (during treatment), the Granuloma formation/expectoration entry was “occasional” and the sarcoid skin involvement result is “unchanged”. In data set [1] (judged by annual 14-day discontinuation), the Remission of disease entry was “not evident”. In addition, in data set [1] (setting [2]), the “Emergency room visits and hospitalizations relating to pulmonary sarcoidosis” value was “none”; the “Pulmonary exacerbations (pneumonia)” value was “not been a single pulmonary exacerbation and none”. Moreover, the “routine chest x-rays during treatment” value in data set [1] (scarring not progressed to more severe disease) is “improvement”. In addition, in data set [1] (single patient), the “Blood chemistry, liver and kidney function during treatment” value is “normal”; the “Exercise tolerance during treatment” value was “unlimited”. The “Coughing, wheezing, dyspnea” value in data set [1] (single patient, continued therapy 3-4 days/week) is given as “none”. For the same molecule, the “Adverse events / side effects relating to PULMOZYME” value in data set [1] (single patient, long-term treatment (more than 10 years; over 12 years)) is “complete absence of side effects and without side effects or incident and none”. Also, in the data set with bronchiectasis patients, the “benefit of treatment in bronchiectasis” value is “failed to demonstrate any benefit” and the “safety of treatment in bronchiectasis” value is “potentially harmful”.
